From patent US20210047398A1, “ASPROSIN, A FAST-INDUCED GLUCOGENIC PROTEIN HORMONE” (Baylor College of Medicine, priority 2016, published 2021)

Key:
[1] = tested on: human dermal fibroblasts; assay: Adipogenic differentiation of human dermal fibroblasts; type: cell-based
Experimental: Cell Culture—Human dermal fibroblasts isolated from NPS subjects or WT dermal fibroblasts from unaffected control subjects were subjected to adipogenic differentiation using standard protocols. […] Standard transfection methods with expression plasmids were used for in vitro transgenesis.
RNA and Protein Analysis—Standard RNA extraction procedures (RNeasy Mini Kit from Qiagen) were employed. Reverse transcription was carried out using the Superscript III kit (Invitrogen) using the manufacturer's protocol. For gene expression analysis, QPCR was performed using sequence-specific primers and probes from Roche (Universal Probe Library). TBP was used as an internal control for all gene-expression assays. Western blotting was performed using standard methods on plasma or cell culture media using a mouse monoclonal antibody directed against Asprosin, which was purchased from Abnova (Catalog #H00002200-M01). The mouse monoclonal antibody against fibrillin-1 was purchased from Abcam (Catalog #ab3090). […] At that time, media was concentrated using the Amicon Ultra-2 Centrifugal filter unit before proceeding with western blotting.

[2] = tested on: mouse primary hepatocytes; assay: In vitro glucose production assay (media glucose accumulation); settings: 2 hours, 0-1100 nM recombinant asprosin
Experimental: Cell Culture. Primary mouse hepatocytes were isolated from 8- to 12-week-old WT mice using standard methodology. […] The cells were treated with 50 nM recombinant asprosin or GFP for 10 minutes for cAMP and PKA assays and for 2 hours for the in vitro glucose production assay. Cells were pretreated with various inhibitors for 1 hour prior to treatment with asprosin, GFP, Glucagon or Epinephrine. cAMP was measured from cell lysates using the cAMP direct immunoassay kit from Cell Biolabs. PKA activity was measured from cell lysates using the PKA kinase activity kit from Enzo Lifesciences, Inc. Media glucose content was measured using the Glucose Colorimetric Assay Kit from Biovision. Results were normalized to protein content.

[3] = tested on: AgRP neurons; assay: Whole-cell patch clamp recordings on AgRP neurons; type: cell-based, mice
Experimental: Electrophysiology—Whole-cell patch clamp recordings were performed on identified AgRP neurons or POMC neurons in the brain slices containing the arcuate nucleus of the hypothalamus (ARH). In particular, to identify AgRP neurons, the inventors crossed Rosa26-tdTOMATO allele onto the regular AgRP-Cre mice (Tong et al., 2008) to generate AgRP-Cre/Rosa26-tdTOMATO mice, which express TOMATO selectively in AgRP/NPY neurons. In some studies, the inventors crossed NPY-GFP mice (Pinto et al., 2004) with NPS mice to generate NPY-GFP mice with or without the NPS mutation, and GFP-labelled neurons in the arcuate nucleus were recorded. In order to record POMC neurons, the inventors crossed Rosa26-tdTOMATO allele onto the POMC-CreERT2 mice (Berglund et al., 2013) to generate POMC-CreERT2/Rosa26-tdTOMATO mice, which express TOMATO selectively in mature POMC neurons upon tamoxifen induction (0.2 mg/g, i.p. 6 weeks of age). In some studies, the inventors also crossed the AgRP-DTR allele onto POMC-GFP mice, and these mice received DT or saline injections (described above) to generate mice with or without AgRP neurons ablated.
Six to twelve-week old mice were deeply anesthetized with isoflurane and transcardially perfused with a modified ice-cold sucrose-based cutting solution (pH 7.3) containing 10 mM NaCl, 25 mM NaHCO3, 195 mM Sucrose, 5 mM Glucose, 2.5 mM KCl, 1.25 mM NaH2PO4, 2 mM Na-Pyruvate, 0.5 mM CaCl2, and 7 mM MgCl2, bubbled continuously with 95% O2 and 5% CO2 (Ren et al., 2012). The mice were then decapitated, and the entire brain was removed and immediately submerged in the cutting solution. Slices (250 μm) were cut with a Microm HM 650V vibratome (Thermo Scientific). Three brain slices containing the arcuate nucleus were obtained for each animal (Bregma −2.06 mm to −1.46 mm; Interaural 1.74 mm to 2.34 mm), and recordings were made at levels throughout this brain region. The slices were recovered for 1 h at 34° C. and then maintained at room temperature in artificial cerebrospinal fluid (aCSF, pH 7.3) containing 126 mM NaCl, 2.5 mM KCl, 2.4 mM CaCl2, 1.2 mM NaH2PO4, 1.2 mM MgCl2, 11.1 mM glucose, and 21.4 mM NaHCO3) saturated with 95% O2 and 5% CO2 before recording.
Slices were transferred to a recording chamber and allowed to equilibrate for at least 10 min before recording. The slices were superfused at 34° C. in oxygenated aCSF at a flow rate of 1.8-2 ml/min. GFP or TOMATO-labeled neurons in the ARH were visualized using epifluorescence and IR-DIC imaging on an upright microscope (Eclipse FN-1, Nikon) equipped with a moveable stage (MP-285, Sutter Instrument). Patch pipettes with resistances of 3-5 MΩ were filled with intracellular solution (pH 7.3) containing 128 mM K-Gluconate, 10 mM KCl, 10 mM HEPES, 0.1 mM EGTA, 2 mM MgCl2, 0.05 mM Na-GTP and 0.05 mM Mg-ATP. Recordings were made using a MultiClamp 700B amplifier (Axon Instrument), sampled using Digidata 1440A and analyzed offline with pClamp 10.3 software (Axon Instruments). Series resistance was monitored during the recording, and the values were generally <10 MΩ and were not compensated. The liquid junction potential was +12.5 mV, and was corrected after the experiment. Data were excluded if the series resistance increased dramatically during the experiment or without overshoot for action potential. Currents were amplified, filtered at 1 kHz, and digitized at 20 kHz. Current clamp was engaged to test neural firing frequency and resting membrane potential (RM) at the baseline and puff delivered recombinant Asprosin (500 ms at various concentrations indicated in the figures). For the asprosin antibody pre-incubation experiment, asprosin and anti-asprosin mAB or IgG were gently mixed at a 1:100 ratio, and then kept on ice for one hour before recording. After AgRP or POMC neuron response to asprosin alone was confirmed, the mixture of recombinant asprosin and anti-asprosin mAB or IgG was perfused to treat the AgRP or POMC neurons for 4 minutes. […]

B1: recombinant asprosin: 146 amino acid E. coli expressed fusion protein: 6 amino acid N-terminal His tag and 140 amino acid wild type asprosin (FBN1 2732-2871) (protein)
chain: HHHHHHSTNETDASNIEDQSETEANVSLASWDVEKTAIFAFNISHVSNKVRILELLPALTTLTNHNRYLIESGNEDGFFKINQKEGISYLHFTKKKPVAGTYSLQISSTPLYKKKELNQLEDKYDKDYLSGELGDNLKMKIQVLLH
- NPS associated fat differentiation and inflammogenic defects ([1]; polypeptide added to the media of mutant cells (10 ug, 7 days), FIG. 15): rescued
- adipogenic differentiation in WT cells ([1]; recombinant asprosin added to culture media (60 nanomolar), 7 days adipogenic induction, FIG. 4G): promoted adipogenic differentiation
- adipogenic defect in NPS mutant cells ([1]; recombinant asprosin added to culture media (60 nanomolar), 7 days, FIG. 4H): sufficient to rescue the adipogenic defect
- media glucose concentration [2]: increase in glucose concentration in a dose-dependent manner
- miniature excitatory post-synaptic current (mEPSC) of AgRP neurons [3]: increased the amplitude but not frequency
- proportion of AgRP neurons asprosin-responsive [3]: about 50%
- dose-dependency of AgRP neuron activation (firing frequency, membrane potential) ([3]; 0.01-100 nM, intact slices): dose-dependent activation
- asprosin-mediated activation with synaptic inputs pharmacologically inhibited ([3]; TTX or TTX + AP-5 + CNQX + bicuculline): no decrease in asprosin-mediated activation
- EC50 for AgRP neuron activation ([3]; firing frequency and membrane potential): nanomolar to subnanomolar range
- AgRP neuron firing frequency and membrane potential ([3]; recombinant asprosin puff): acutely induced their activation
